This is an account of results in paper PMC4224615.

The target in test [1] is BG505 SOSIP.664 trimer (HIV-1 BG505). Kind of test: negative-stain electron microscopy.
Test [2] has as its target BG505 SOSIP.664 trimer, captured by anti-histidine (SPR of Fig. 2d) (HIV-1 BG505). Kind of test: SPR. A general note: Surface plasmon resonance follows binding to a sensor surface in real time, without labels.

Substance 35O22 Fab gave a stoichiometry N (Fabs per trimer) in test [1] of 3.

The substance 35O22 antibody (full-length IgG) came in with an equilibrium dissociation constant (Kd) in test [2] of 5.6 nM.

The Kd is the concentration at which binding is half-saturated. A low value points to higher affinity.
